The text below walks through data of patent US20230331835A1 (published 2023).

Assay [1] has as its target BMECs. The assay is described as follows: cell binding, apparent equilibrium affinity; apparent Kd; 95% CI 27-60.
The target in assay [2] is BMECs. The assay is described as follows: cell binding, apparent equilibrium affinity; apparent Kd; 95% CI 128-179.
Assay [3] has as its target BMECs. The assay is described as follows: cell binding, apparent equilibrium affinity; apparent Kd; 95% CI 30-74.
Assay [4] addresses BMECs. The experiment in a line: cell binding, apparent equilibrium affinity; apparent Kd; 95% CI 29-47.
In assay [5] the target is BMECs. The assay is described as follows: cell binding, apparent equilibrium affinity; apparent Kd; 95% CI 19-36.

B1: 9 (Fc fusion)
chain: QVQLVESGGGVTQPGLSLRLSCAASGFTFSSYAMSWVRQAPGKGLEWVSAISGSGGSTYYADSVKGRFTISRDNSKNTLYLQMNSLRAEDTAVYYCARGWKYFDYWGQGTLVTVSSSGGGSGGGGSGGGGSETTLTQSPSTLSASIGDRVAITCRASEGIYHWLAWYQQKPGKAPKLLIYKASSLASGAPSRFSGSGSGTDFTLTISSLQPDDFATYYCQQYHTISRTFGPGTKVEIKR
On to B1, for which the Kd in assay [1] worked out at 44 nM.

B2: 46.1 (Fc fusion)
chain: QVQLQESGGGLAQPGGSLRLSCAASGFTFSGYWMHWVRQAPGKGLVWVSRIKGDGTDIEYADSVKGRFTISRDNAKNTLYLQMNSLRAEDTAVYYCARDLRQTHWFDSWGQGTLVTVSSGGGGSGGGGSGGGGSQSALTQDPAVSVALGQTVRITCQGDSLRSYYASWYQQKPGQAPVLVMYGENSRPSGIPDRFSGSNSGNTASLIITGAQAEDEADYYCSSRDTSGNHVLFGGGTKLTVLG
As for B2, the Kd in assay [2] was 153 nM.

B3: 3 (Fc fusion)
chain: QVQLQESGGGVVQPGRSLRLSCAASGFTFSSYAMHWVRQAPGKGLEWVAVISYDGSNKYYADSVKGRFTISRDNSKNTLYLQMNSLRAEDTAVYYCARDSKGQSVRNRFDPWGQGTLVTVSSGGGGSGGGGSGGGGSSELTQDPAVSVALGQTVRITCQGDNLRSYYASWYQQRPGQAPILVLYANTHRPSSIPDRFSGSSSGNTASLTITGAQAEDEADYYCNSRDSSGNLVVFGGGTKLTVLG
Take B3: the Kd in assay [3] was found to be 52 nM.

B4: 26 (Fc fusion)
chain: QVELVESGGGLVQPGGSLRLSCAASGFTFSTYWMNWVRQAPGKGLEWVAIINQDGTAEYYVDSVEGRFTISRDNAKNSLYLQMTSLRVEDTAVYYCATPTGDSDYWGQGTLVTVSSGGGGSGGGGSGGGGSSELTQDPAVSVALGQTVRITCQGDSLRSYYATWYQQKPGQAPVAVIYGQNNRPSGIPDRFSGSNSGNTASLTITAALAEDEADYYCHSRDSSGNHVLFGGGTKLTVLG
On to B4, for which the Kd in assay [4] is 38 nM.

B5: 17 (Fc fusion)
chain: QVQLLQSAGALVQPGGSLRLSCAASGFTFSSSTMHWVRQAPGKGLEWVAVVSYDGNTQYYADSVKGRFTISRDNSKNTLSLQMNNLRAEDTAVYYCAGLWGSLLGYFQHWGQGTLVTVSSGGGGSGGGGSGGGGSDIQMTQSPSFLSASVGDRVTITCRASQGVNNYLAWYQQKPGKAPKLLIYAASTLQSGVPSSFSGSGSGTEFTLTISSLQPEDFATYFCQQAHSFPPTFGGGTKLEIKR
As for B5, in assay [5], the Kd turned out to be 28 nM.
